Our source for the Kd values is patent US20220002395A1 (FAPON BIOTECH, published 2022).

In general, Kd refers to the equilibrium constant for the complex coming apart. High values mean lower affinity, low ones higher affinity.

The labels stand for the following.
B1: Mutation 1-3 (antibody, mouse IgG2b, kappa, V domains shown)
VH: EVQLQQSGPEVVKPGASVKISCKASGYTITDYYMNWVKQSHGKGLEWIGDLNPINGGTAYQQKFRDKATLTVDKSSNTAYMELRSLTSEDSALYYCTRGAEDYWGQGTTLTVSS
VL: DVVLTQTPLSLSVTIGQPASISCKSSQSIIYSNGKIYLNWFQQRPGQSPKRLMYQLSKLEPGIPDRFSGSGSETDFTLKISRVEAEDLGVYYCLQGTYSPQTFGGGTKLEIKR
notes: Mutation 1 as framework
B2: Mutation 1-30 (antibody, mouse IgG2b, kappa, V domains shown)
VH: EVQLQQSGPEVVKPGASVKISCKASGSTLTDYYMNWVKQSHGKGLEWIGDLNPIQGGTAYNQKFRDKATLTVDKSSNTAYMELRSLTSEDSALYYCTKGAEDYWGQGTTLTVSS
VL: DVVLTQTPLSLSVTIGQPASISCKSSQSIIYSNGKIYLNWFQQRPGQSPKRLMYQISKLDPGIPDRFSGSGSETDFTLKISRVEAEDLGVYYCLQATYSPQTFGGGTKLEIKR
notes: Mutation 1 as framework
B3: Mutation 1-43 (antibody, mouse IgG2b, kappa, V domains shown)
VH: EVQLQQSGPEVVKPGASVKISCKASGTTLTDYYMNWVKQSHGKGLEWIGDINPINGGTAYQQKFRDKATLTVDKSSNTAYMELRSLTSEDSALYYCTKGAEDYWGQGTTLTVSS
VL: DVVLTQTPLSLSVTIGQPASISCKSSQSILYSNGKIYLNWFQQRPGQSPKRLMYQISKLEPGIPDRFSGSGSETDFTLKISRVEAEDLGVYYCLQGTYSPQTFGGGTKLEIKR
notes: Mutation 1 as framework
B4: Mutation 1-44 (antibody, mouse IgG2b, kappa, V domains shown)
VH: EVQLQQSGPEVVKPGASVKISCKASGYTITDYYMNWVKQSHGKGLEWIGDVNPINGGTAYQQKFRDKATLTVDKSSNTAYMELRSLTSEDSALYYCTRGAEDYWGQGTTLTVSS
VL: DVVLTQTPLSLSVTIGQPASISCKSSQSILYSNGKIYLNWFQQRPGQSPKRLMYQLSKLDPGIPDRFSGSGSETDFTLKISRVEAEDLGVYYCLQATYSPQTFGGGTKLEIKR
notes: Mutation 1 as framework
B5: Mutation 1-24 (antibody, mouse IgG2b, kappa, V domains shown)
VH: EVQLQQSGPEVVKPGASVKISCKASGTTLTDYYMNWVKQSHGKGLEWIGDLNPIQGGTAYQQKFRDKATLTVDKSSNTAYMELRSLTSEDSALYYCTKGAEDYWGQGTTLTVSS
VL: DVVLTQTPLSLSVTIGQPASISCKSSQSIIYSNGKIYLNWFQQRPGQSPKRLMYQISKLDPGIPDRFSGSGSETDFTLKISRVEAEDLGVYYCLQATYSPQTFGGGTKLEIKR
notes: Mutation 1 as framework
B6: Mutation 1-9 (antibody, mouse IgG2b, kappa, V domains shown)
VH: EVQLQQSGPEVVKPGASVKISCKASGYTLTDYYMNWVKQSHGKGLEWIGDLNPIQGGTAYNQKFRDKATLTVDKSSNTAYMELRSLTSEDSALYYCTRGAEDYWGQGTTLTVSS
VL: DVVLTQTPLSLSVTIGQPASISCKSSQSIIYSQGKIYLNWFQQRPGQSPKRLMYQLSKLEPGIPDRFSGSGSETDFTLKISRVEAEDLGVYYCLQGTYSPQTFGGGTKLEIKR
notes: Mutation 1 as framework
B7: Mutation 1-27 (antibody, mouse IgG2b, kappa, V domains shown)
VH: EVQLQQSGPEVVKPGASVKISCKASGTTLTDYYMNWVKQSHGKGLEWIGDLNPINGGTAYQQKFRDKATLTVDKSSNTAYMELRSLTSEDSALYYCTKGAEDYWGQGTTLTVSS
VL: DVVLTQTPLSLSVTIGQPASISCKSSQSIIYSNGKIYLNWFQQRPGQSPKRLMYQLSKLEPGIPDRFSGSGSETDFTLKISRVEAEDLGVYYCLQGTYSPQTFGGGTKLEIKR
notes: Mutation 1 as framework
B8: Mutation 1-42 (antibody, mouse IgG2b, kappa, V domains shown)
VH: EVQLQQSGPEVVKPGASVKISCKASGYTITDYYMNWVKQSHGKGLEWIGDLNPINGGTAYQQKFRDKATLTVDKSSNTAYMELRSLTSEDSALYYCTRGAEDYWGQGTTLTVSS
VL: DVVLTQTPLSLSVTIGQPASISCKSSQSILYSNGKIYLNWFQQRPGQSPKRLMYQISKLDPGIPDRFSGSGSETDFTLKISRVEAEDLGVYYCLQGTYSPQTFGGGTKLEIKR
notes: Mutation 1 as framework
B9: Mutation 1-52 (antibody, mouse IgG2b, kappa, V domains shown)
VH: EVQLQQSGPEVVKPGASVKISCKASGTTLTDYYMNWVKQSHGKGLEWIGDINPIQGGTAYQQKFRDKATLTVDKSSNTAYMELRSLTSEDSALYYCTRGAEDYWGQGTTLTVSS
VL: DVVLTQTPLSLSVTIGQPASISCKSSQSIIYSNGKIYLNWFQQRPGQSPKRLMYQVSKLDPGIPDRFSGSGSETDFTLKISRVEAEDLGVYYCLQATYYPQTFGGGTKLEIKR
notes: Mutation 1 as framework
B10: Mutation 1-12 (antibody, mouse IgG2b, kappa, V domains shown)
VH: EVQLQQSGPEVVKPGASVKISCKASGYTITDYYMNWVKQSHGKGLEWIGDLNPINGGTAYNQKFRDKATLTVDKSSNTAYMELRSLTSEDSALYYCTRGAEDYWGQGTTLTVSS
VL: DVVLTQTPLSLSVTIGQPASISCKSSQSILYSNGKIYLNWFQQRPGQSPKRLMYQISKLDPGIPDRFSGSGSETDFTLKISRVEAEDLGVYYCLQGTYSPQTFGGGTKLEIKR
notes: Mutation 1 as framework
B11: Mutation 1-51 (antibody, mouse IgG2b, kappa, V domains shown)
VH: EVQLQQSGPEVVKPGASVKISCKASGSTLTDYYMNWVKQSHGKGLEWIGDLNPINGGTAYQQKFRDKATLTVDKSSNTAYMELRSLTSEDSALYYCTKGAEDYWGQGTTLTVSS
VL: DVVLTQTPLSLSVTIGQPASISCKSSQSLLYSNGKIYLNWFQQRPGQSPKRLMYQLSKLEPGIPDRFSGSGSETDFTLKISRVEAEDLGVYYCLQGTYYPQTFGGGTKLEIKR
notes: Mutation 1 as framework
B12: Mutation 1-38 (antibody, mouse IgG2b, kappa, V domains shown)
VH: EVQLQQSGPEVVKPGASVKISCKASGTTLTDYYMNWVKQSHGKGLEWIGDVNPIQGGTAYQQKFRDKATLTVDKSSNTAYMELRSLTSEDSALYYCTRGAEDYWGQGTTLTVSS
VL: DVVLTQTPLSLSVTIGQPASISCKSSQSLLYSNGKIYLNWFQQRPGQSPKRLMYQLSKLDPGIPDRFSGSGSETDFTLKISRVEAEDLGVYYCLQGTYSPQTFGGGTKLEIKR
notes: Mutation 1 as framework
B13: Mutation 1-36 (antibody, mouse IgG2b, kappa, V domains shown)
VH: EVQLQQSGPEVVKPGASVKISCKASGTTLTDYYMNWVKQSHGKGLEWIGDLNPIQGGTAYNQKFRDKATLTVDKSSNTAYMELRSLTSEDSALYYCTRGAEDYWGQGTTLTVSS
VL: DVVLTQTPLSLSVTIGQPASISCKSSQSLLYSNGKIYLNWFQQRPGQSPKRLMYQISKLDPGIPDRFSGSGSETDFTLKISRVEAEDLGVYYCLQGTYSPQTFGGGTKLEIKR
notes: Mutation 1 as framework
B14: Mutation 1-34 (antibody, mouse IgG2b, kappa, V domains shown)
VH: EVQLQQSGPEVVKPGASVKISCKASGTTLTDYYMNWVKQSHGKGLEWIGDINPINGGTAYQQKFRDKATLTVDKSSNTAYMELRSLTSEDSALYYCTRGAEDYWGQGTTLTVSS
VL: DVVLTQTPLSLSVTIGQPASISCKSSQSLLYSNGKIYLNWFQQRPGQSPKRLMYQVSKLDPGIPDRFSGSGSETDFTLKISRVEAEDLGVYYCLQGTYTPQTFGGGTKLEIKR
notes: Mutation 1 as framework
B15: Mutation 1-40 (antibody, mouse IgG2b, kappa, V domains shown)
VH: EVQLQQSGPEVVKPGASVKISCKASGTTLTDYYMNWVKQSHGKGLEWIGDINPINGGTAYQQKFRDKATLTVDKSSNTAYMELRSLTSEDSALYYCTRGAEDYWGQGTTLTVSS
VL: DVVLTQTPLSLSVTIGQPASISCKSSQSILYSNGKIYLNWFQQRPGQSPKRLMYQLSKLDPGIPDRFSGSGSETDFTLKISRVEAEDLGVYYCLQGTYTPQTFGGGTKLEIKR
notes: Mutation 1 as framework

The experiment concerns the target T1, Plasmodium falciparum histidine-rich protein II (HRP-II) (Plasmodium falciparum, UniProt P05227 22-332).
T1 construct: Coating antigen of all ELISAs; also called HRP-II protein; MA-HRPII Ag protein
T1 sequence (looked up): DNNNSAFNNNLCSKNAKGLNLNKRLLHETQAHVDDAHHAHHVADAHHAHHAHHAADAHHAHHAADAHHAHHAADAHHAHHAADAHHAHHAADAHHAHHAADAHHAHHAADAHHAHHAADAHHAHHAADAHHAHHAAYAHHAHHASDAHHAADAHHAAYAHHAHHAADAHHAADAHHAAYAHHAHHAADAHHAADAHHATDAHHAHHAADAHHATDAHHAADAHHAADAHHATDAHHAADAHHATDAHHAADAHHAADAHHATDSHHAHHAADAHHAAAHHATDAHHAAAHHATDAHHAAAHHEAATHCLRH
Put plainly: indirect ELISA, four antigen coating concentrations.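 Also: optical density read across an antibody dilution series at each antigen coating level, curves plotted on log scale, KD derived as reciprocal of the averaged constant.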 In general terms: In an ELISA, binding on a coated surface is turned into a signal by an enzyme label.
Experimental: The OD values corresponding to different antibody concentrations with different coating concentrations are obtained. Under the same coating concentration, the antibody concentrations are used as an abscissa, the 00 values are used as an ordinate, and a logarithmic plot is made. […] An average value thereof is taken and a reciprocal thereof is calculated to get the affinity constant KD.
As for B1, binding was put at a Kd of 0.362 nM. Next, B2: 0.233 nM.

Turning to B3, the dissociation constant Kd was 0.124 nM. With B4, the Kd was 0.105 nM. The Kd values of the last two molecules are within 1.5-fold of each other. The molecule B5 displayed a Kd of 0.127 nM. B6: the Kd was determined as 0.0645 nM. On to B7, for which the Kd was 0.165 nM. As for B8, the figure is 0.0643 nM; as for B9, 0.182 nM; as for B10, 0.126 nM.

The molecule B11 showed a Kd of 0.179 nM. This Kd and that of the molecule before are within 1.5-fold of each other. B12 came in with a Kd of 0.0883 nM. For B13, the Kd was 0.473 nM. The molecule B14 displayed an equilibrium dissociation constant (Kd) of 0.184 nM. Compared with the last molecule, the Kd is about 2.6-fold lower. For the molecule B15, the dissociation constant Kd is 0.083 nM.
